Measurements reported in patent US20030138840A1.

Tests used:
[1] = molecular target: Recombinant human CPP32 protein with a C-terminal 6His tag, (p17p12)2 tetramer (human) (UniProt P42574); assay: cell-based or functional assay
[2] = molecular target: CPP32 P12 subunit + Leu + Glu + 6 His (human) (UniProt P42574); assay: analysis of the purified protein (SDS-PAGE, RP-HPLC, MALDI-TOF MS, N-terminal sequence and amino acid analysis)

Molecule	enzyme inhibited (CPP32 protease activity) [1] [%]	molar ratio [2] [mol/mol]
Ac-Asp-Val-Ala-Asp-fluoromethylketone (peptide)	99.9	
CPP32 P17 subunit (enzyme, human, UniProt P42574 29-175, looked up) SGISLDNSYKMDYPEMGLCIIINNKNFHKSTGMTSRSGTDVDAANLRETFRNLKYEVRNKNDLTREEIVELMRDVSKEDHSKRSSFVCVLLSHGEEGIIFGTNGPVDLKKITNFFRGDRCRSLTGKPKLFIIQACRGTELDCGIETD		1
